Numbering of substitutions follows the chain as printed. Each block holds one molecule with its values, some of them ahead of it.
Key:
[1] = biological target: human MSLN expressed on cancer cell surface (human) (UniProt Q13421); assay: flow cytometry on H226 cells expressing MSLN, control antibody, PE-conjugated anti-human IgG detection
[2] = biological target: human MSLN expressed on cancer cell surface (human) (UniProt Q13421); assay: flow cytometry on PL45 cells expressing MSLN, control antibody, PE-conjugated anti-human IgG detection
[3] = biological target: human MSLN expressed on cancer cell surface (human) (UniProt Q13421); assay: flow cytometry on AsPC1 cells expressing MSLN, control antibody, PE-conjugated anti-human IgG detection
[4] = biological target: human MSLN expressed on cancer cell surface (human) (UniProt Q13421); assay: flow cytometry on Capan2 cells expressing MSLN, control antibody, PE-conjugated anti-human IgG detection
recombinant human MSLN = biological target: T1, recombinant human MSLN (human, UniProt Q13421 296-580, limits assumed); assay: BLI (Octet), MSLN on anti-Penta His sensor, antibody 3.125-50 nM
T1 construct: It was fixed to an anti-Penta His (HIS1K) sensor, so a His tag is implied; also called recombinant MSLN; mesothelin
T1 sequence (Q13421 other isoform, or with tags, fused parts or gaps limits assumed): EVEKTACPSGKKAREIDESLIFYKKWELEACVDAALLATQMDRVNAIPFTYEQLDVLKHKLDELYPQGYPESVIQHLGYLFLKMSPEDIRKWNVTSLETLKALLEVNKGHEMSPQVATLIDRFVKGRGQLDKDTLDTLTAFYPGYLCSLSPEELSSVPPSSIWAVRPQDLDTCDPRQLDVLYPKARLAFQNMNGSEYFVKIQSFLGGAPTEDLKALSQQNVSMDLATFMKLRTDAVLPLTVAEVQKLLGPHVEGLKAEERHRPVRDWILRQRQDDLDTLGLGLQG
Protocol: Specifically, recombinant human MSLN was prepared at a concentration of 5 μg/ml in 1× kinetic buffer and used to treat a 96-well-plate at 200 μl/well. The MSLN after treatment was fixed to the anti-Penta His (HIS1K, Cat #18-5121, Fortebio) sensor.
Then, the 3 humanized anti-MSLN antibodies produced in accordance with Example 1 and the mouse human chimeric MI323 IgG1 clones were diluted to a concentration of 50, 25, 12.5, 6.25, or 3.125 nM in 1× kinetic buffer, and treatment therewith was performed at 200 μl/well. For the 1×kinetic buffer, one obtained by 10-fold dilution of 10×kinetic buffer (ForteBio, Cat #18-1092) with PBS was used.
The interaction between the MSLN fixed to the sensor and the antibody at several concentrations was analyzed to calculate antigen-antibody affinity, and the results are shown in Table 4 below.

human MSLN expressed on cancer cell surface (human), sequence (Q13421 other isoform, or with tags, fused parts or gaps limits assumed): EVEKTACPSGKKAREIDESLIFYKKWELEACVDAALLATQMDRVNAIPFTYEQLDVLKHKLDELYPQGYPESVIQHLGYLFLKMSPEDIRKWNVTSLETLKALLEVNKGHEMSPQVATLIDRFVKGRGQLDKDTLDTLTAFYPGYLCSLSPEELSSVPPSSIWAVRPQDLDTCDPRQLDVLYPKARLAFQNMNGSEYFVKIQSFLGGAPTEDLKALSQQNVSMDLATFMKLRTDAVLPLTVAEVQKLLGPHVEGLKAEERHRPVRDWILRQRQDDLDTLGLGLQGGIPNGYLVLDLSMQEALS

Molecule: hIgG (antibody)
MFI [1]: 120 | MFI [2]: 96.5 | MFI [3]: 85.9 | MFI [4]: 169

B2: HMI323VL-1/HMI323VH-3 IgG1 (antibody, V domains shown)
VH: EVQLVQSGAEVKKPGTSVKVSCKASGYSFTSYFIQWVRQAPGQGLEWIGWIFPGSGNTKYSQKFQGRVTITRDTSTSTAYMELSSLRSEDTAVYYCARSGGYQYYFDYWGQGTLVTVSS
VL: DIQMTQSPSSLSASVGDRVTITCRASQDVSTAVAWYQQKPGKAPKLLIYSASYRYPGVPSRFSGSGSGTDFTLTISSLQPEDFATYYCQQHYSTPWTFGGGTKLEIKR
notes: also called humanized MI323 IgG1
Kd (recombinant human MSLN): 0.0327 nM | koff (recombinant human MSLN): 2.75e-05 s⁻¹ | kon (recombinant human MSLN): 842000 M⁻¹ s⁻¹

B3: HMI323VL-1/HMI323VH-2 (antibody, human IgG1, kappa, V domains shown)
VH: B2 VH with E1Q, T16S, Q35S, I48M, W50G, T58A, K59N, S61A, R72A, T74E
VL: B2 VL
notes: also called humanized MI323 IgG1 (VL-1/VH-2)
Kd (recombinant human MSLN): 0.273 nM | koff (recombinant human MSLN): 0.000509 s⁻¹ | kon (recombinant human MSLN): 1.86e+06 M⁻¹ s⁻¹

Further molecules by falling Kd (recombinant human MSLN), results first:

Kd (recombinant human MSLN): 0.139 nM | koff (recombinant human MSLN): 9.25e-05 s⁻¹ | kon (recombinant human MSLN): 665000 M⁻¹ s⁻¹
B4: HMI323VL-1/HMI323VH-1 (antibody, human IgG1, kappa, V domains shown)
VH: B2 VH with E1Q, T16A, I34M, Q35H, G44R, I48M, S55N, T76A
VL: B2 VL
notes: also called humanized MI323 IgG1 (VL-1/VH-1)

Kd (recombinant human MSLN): 0.0286 nM | koff (recombinant human MSLN): 1.3e-05 s⁻¹ | kon (recombinant human MSLN): 454000 M⁻¹ s⁻¹
B1: mouse/human chimeric MI323 IgG1 (antibody, V domains shown)
VH: EVQLQQSGPELVKPGTSVKISCKASGYSFTSYFIQWVKQRPGQGLEWIGWIFPGSGNTKYNEMFKGKATLAADTSSSTAYMQLSSLTSEDSAVYFCARSGGYQYYFDYWGQGTSVTVSS
VL: DIVMTQSHKFMSTSVGDRVSITCKASQDVSTAVAWYQQKPGQSPKLLIYSASYRYPGVPDRFTGSGSGTDFTFTISSVQAEDLALYYCQQHYSTPWTFGGGTKLEIKR
notes: Control antibody; also called mouse human chimeric MI323 IgG1 antibody; MI323 antibody
